For test [1], the target named is T1, MED23, endogenous, incorporated within the Mediator complex (human (endogenous in HEK-293), UniProt Q9ULK4).
T1 construct: Mediator subunit MED23, human, endogenous; source: endogenous, HEK-293 lysate
Briefly: co-IP; HEK-293 lysate (50 mM Tris/HCl pH 8, 250 mM NaCl, 0.1% Igepal CA-630) incubated with 2 µg of Nb106 overnight at 4 °C; fished with CaptureSelect C-tag Affinity Matrix; western blot. Particulars: one partner purified.

Test [2] has as its target T2, human MED23 isoform 1, C-terminal 6xHis-tagged (MED23-6His) (human, UniProt Q9ULK4-1).
T2 construct: Mediator subunit MED23, human, isoform 1 (NM_004830.3); A rhinovirus 3C protease site stands between MED23 and the 6xHis tag; no cleavage is described; The DNA encoding isoform 1 was amplified by PCR; the words 'full length' are not used, but the model is called complete except for the last 30 residues; also called recombinant human MED23; source: SF21 cells, baculovirus (Bac-to-Bac), purified …
In words: crystal structure; purified MED23 mixed with Nb106 in a 1:1.2 ratio, 1 h at 4 °C; hanging drop vapor diffusion at 20 °C, 10% PEG6000, 100 mM HEPES pH 7.0; one complex in the asymmetric unit. Particulars: both partners purified.

T1 sequence (Q9ULK4 whole entry, one chain of several): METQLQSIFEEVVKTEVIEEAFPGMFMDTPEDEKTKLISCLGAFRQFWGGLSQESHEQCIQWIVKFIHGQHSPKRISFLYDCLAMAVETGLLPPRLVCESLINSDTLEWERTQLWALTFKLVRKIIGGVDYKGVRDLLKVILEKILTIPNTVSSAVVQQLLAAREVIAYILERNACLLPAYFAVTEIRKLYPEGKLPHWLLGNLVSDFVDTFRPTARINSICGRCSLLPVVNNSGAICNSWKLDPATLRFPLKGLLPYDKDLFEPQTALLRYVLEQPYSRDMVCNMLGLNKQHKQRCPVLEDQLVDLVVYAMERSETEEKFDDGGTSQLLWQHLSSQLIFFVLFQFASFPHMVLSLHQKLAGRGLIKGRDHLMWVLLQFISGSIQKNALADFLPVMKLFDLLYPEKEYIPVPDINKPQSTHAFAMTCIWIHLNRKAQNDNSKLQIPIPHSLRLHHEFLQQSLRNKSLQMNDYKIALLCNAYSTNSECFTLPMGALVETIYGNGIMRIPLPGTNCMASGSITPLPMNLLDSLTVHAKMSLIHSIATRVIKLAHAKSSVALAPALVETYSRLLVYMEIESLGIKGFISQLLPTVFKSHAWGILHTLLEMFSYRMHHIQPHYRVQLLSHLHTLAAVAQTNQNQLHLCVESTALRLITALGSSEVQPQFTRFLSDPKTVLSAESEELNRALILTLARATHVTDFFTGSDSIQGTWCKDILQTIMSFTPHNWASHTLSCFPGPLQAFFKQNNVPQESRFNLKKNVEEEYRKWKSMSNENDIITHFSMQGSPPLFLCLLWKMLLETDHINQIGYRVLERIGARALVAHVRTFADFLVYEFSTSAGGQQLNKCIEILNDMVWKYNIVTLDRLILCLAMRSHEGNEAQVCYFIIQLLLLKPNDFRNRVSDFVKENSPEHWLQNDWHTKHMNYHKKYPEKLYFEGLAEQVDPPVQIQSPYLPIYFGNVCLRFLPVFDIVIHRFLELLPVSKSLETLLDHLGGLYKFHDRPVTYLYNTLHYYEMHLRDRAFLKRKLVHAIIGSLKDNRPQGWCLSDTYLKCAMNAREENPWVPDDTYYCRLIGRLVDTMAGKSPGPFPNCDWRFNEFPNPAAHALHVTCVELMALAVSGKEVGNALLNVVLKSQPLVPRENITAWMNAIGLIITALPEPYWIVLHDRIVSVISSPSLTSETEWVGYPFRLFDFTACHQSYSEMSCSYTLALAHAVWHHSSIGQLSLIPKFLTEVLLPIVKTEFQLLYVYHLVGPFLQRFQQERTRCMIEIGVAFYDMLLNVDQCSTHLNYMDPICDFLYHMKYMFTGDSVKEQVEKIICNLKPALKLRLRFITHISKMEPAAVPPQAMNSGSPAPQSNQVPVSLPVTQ
T2 sequence (Q9ULK4 whole entry, canonical isoform): as the sequence (Q9ULK4 whole entry, one chain of several) above

B1: nanobody Nb106 (VHH)
VHH: QVQLVESGGGLVQAGASLRLSCAVSGRTGSIYTMGWFRQAPGKEREVVARTTWTPGSTKYADSVKGRVAISRDIAKNTLYLQMNNLKPEDTAVYYCAACAYGTCYYGDRAYEYWGQGTQVTVSS
notes: A related nanobody (PDB 5IMK) was used to fit the density; it is not Nb106; also called lama nanobody; source: E. coli WK6, periplasmic extract, purified (Ni-NTA, Superdex 75)
As for B1, the binding result in test [1] and in test [2] was “binds” in each case.

For the origin of these results see PMC6107663, “Crystal structure of human Mediator subunit MED23” (Nature Communications, 2018).
